Molecular target: the molecule itself
Assay: SEC; two tandem Superdex 200 3.2/30 PC columns, 100 mM Tris-HCl pH 7.9, 0.15 M NaCl, room temperature, about 50 µg refolded protein; monomer to oligomer equilibrium

B1: soluble recombinant DC-SIGN, entire extracellular domain (residues 70-404) (domain or fragment)
chain: EQSRQDAIYQNLTQLKAAVGELSEKSKLQEIYQELTQLKAAVGELPEKSKLQEIYQELTRLKAAVGELPEKSKLQEIYQELTWLKAAVGELPEKSKMQEIYQELTRLKAAVGELPEKSKQQEIYQELTRLKAAVGELPEKSKQQEIYQELTRLKAAVGELPEKSKQQEIYQELTQLKAAVERLCHPCPWEWTFFQGNCYFMSNSQRNWHDSITACKEVGAQLVVIKSAEEQNFLQLQSSRSNRFTWMGLSDLNQEGTWQWVDGSPLLPSFKQYWNRGEPNNVGEEDCAEFSGNGWNDDKCNLAKFWICKKSAASCSRDEEQFLSPAPATPNPPPA
notes: DC-SIGN, entire extracellular domain, residues 70-404 of GenBank NP_066978; cDNA of immature monocyte-derived dendritic cells; the sense primer carries an ATG before the first DC-SIGN codon; The preparation is a monomer:tetramer equilibrium (3.3:1 tetramer to monomer by SEC); the tetramer predominates. pET15b normally adds an N-terminal His6 tag with a thrombin site (surmised); no cleavage is …
stoichiometry N: 4

Source: paper PMC3233575, “DC-SIGN Increases the Affinity of HIV-1 Envelope Glycoprotein Interaction with CD4” (PLoS ONE, 2011)
